How the values were obtained:
[1] = molecular target: Human GAL3 protein (TrueBinding, QCB200349 / QCB200352; R&D Systems, 8259-GA) (human) (UniProt P17931); assay: blocking ELISA (GAL3 coated; antibody + biotinylated ITGaV)
[2] = molecular target: Human GAL3 protein (TrueBinding, QCB200349 / QCB200352; R&D Systems, 8259-GA) (human) (UniProt P17931); assay: cell-based or functional assay
[3] = molecular target: Human GAL3 protein (TrueBinding, QCB200349 / QCB200352; R&D Systems, 8259-GA) (human) (UniProt P17931); assay: blocking ELISA (GAL3 coated; antibody + biotinylated ITGa3)
[4] = molecular target: Human GAL3 protein (TrueBinding, QCB200349 / QCB200352; R&D Systems, 8259-GA) (human) (UniProt P17931); assay: blocking ELISA (GAL3 coated; antibody + biotinylated ITGb3)
[5] = molecular target: Human GAL3 protein (TrueBinding, QCB200349 / QCB200352; R&D Systems, 8259-GA) (human) (UniProt P17931); assay: blocking ELISA (GAL3 coated; antibody + biotinylated ITGb1)
For inhibition of Jurkat T cell adhesion in this document: test concentration or dose not given here.

Human GAL3 protein (TrueBinding, QCB200349 / QCB200352; R&D Systems, 8259-GA) (human), sequence (P17931 2-250 limits assumed): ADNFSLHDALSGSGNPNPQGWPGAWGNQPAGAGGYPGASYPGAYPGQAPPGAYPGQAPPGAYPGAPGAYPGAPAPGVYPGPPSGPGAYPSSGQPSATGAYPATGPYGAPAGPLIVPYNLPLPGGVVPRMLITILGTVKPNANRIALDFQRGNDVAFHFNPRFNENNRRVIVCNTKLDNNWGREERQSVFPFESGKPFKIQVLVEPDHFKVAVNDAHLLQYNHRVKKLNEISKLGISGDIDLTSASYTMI

Binder	percent blockade of GAL3-ITGaV interaction [1]	inhibition of Jurkat T cell adhesion [2]	percent blockade of GAL3-ITGa3 interaction [3]	percent blockade of GAL3-ITGb3 interaction [4]	percent blockade of GAL3-ITGb1 interaction [5]
15F10.2D6 (antibody, V domains shown) VH: EVQLVESGGGLVKPGGSLKLSCAASGFAFSSYAMSWVRQTPEKRLEWVATISDGGVYTYYTDHVKGRFTISRDNAEDNLYLQMSHLKSEDTAMYYCVRDGGYWGQGTTLTVSS VL: DVLMTQTPLSLPVSLGDQASISCRSSQSIVHNNGNTYLEWYLQKPGQSPKLLIYKVSNRFSGVPDRFSGSGSGTDFTLKISRVEAEDLGVYYCFQGSHVPLTFGGGTKLELK		40 to 80%	> 90%		40 to 60%
7D8.2D8 (antibody, V domains shown) VH: EVQLVESGGGLVKPGGSLKLSCAASGFTFSSYAMSWVRQTPEKRLEWVATISDGGIYTYYPDNVKGRFTISRDNAKNNLFLQMSHLKSEDTAMYYCVRDGGYWGQGTTLTVSS VL: DVLMTQTPLSLPVSLGDQASISCRSSQSIVHSNGNTYLEWYLQKPGQSPKLLIYKVSNRFSGVPDRFSGSGSGTDFTLKISRVEAEDLGVYYCFQGSHVPLTFGAGTKLELK		40 to 80%	> 90%		40 to 60%

Results, then the binder that gave them:

percent blockade of GAL3-ITGaV interaction [1]	inhibition of Jurkat T cell adhesion [2]	percent blockade of GAL3-ITGa3 interaction [3]	percent blockade of GAL3-ITGb3 interaction [4]	percent blockade of GAL3-ITGb1 interaction [5]	Binder
> 90%					F849C.8D10 (antibody, V domains shown) VH: QVQLQQTGAELVKPGASVKLSCKASGYTFTSYWINWVKQRPGQGLEWIGNIYPGSSSIYYSEKFKSKATLTVDTSSSTAYMQLSSLTSDDSAVYYCARWGYWGQGTTLTVSS VL: DVLMTQTPLSLPVSLGDQASISCRSSQDIVHSSGNTYLEWYLQKPGQSLKLLIYKVSNRFSGVPDRFSASGSGTDFTLKISRVEAEDLGVYYCFQGSHVPPTFGSGTKLEIKR
	40 to 80%	> 90%	> 90%		F846TC.14E4 (antibody, V domains shown) VH: QVTLKESGPGILQPSQTLSLTCSFSGFSLSTSGMGVGWIRQPSGKGLEWLAHIWWDDDKYYNTALKSGLTISKDASKNQVFLKIASMDTADTATYYCARNLYDGSYGYYAMDYWGQGTSVTVSS VL: DIVMTQAAFSNPVTLGTSASISCRSSKSLLHTNGITFLYWYLQKPGQSPQPLIYQMSNLASGVPDRFSSSGSGTDFTLRISRVEAEDVGVYYCAQNLELPWTFGGGTKLEINR

Source: patent US20230094463A1, “ANTIBODIES THAT DISRUPT THE INTERACTION OF GAL3 AND INSULIN RECEPTOR OR INTEGRINS AND METHODS OF USE THEREOF” (TrueBinding, Inc., priority 2019, published 2023)
